We go through nine molecules from patent US20180155411A1 (Stanford University, published 2018).

Residue numbers refer to the chain shown, from its start.

Assay [1] addresses T1, VP4 of rotavirus strain Wa (G1P[8]) (human rotavirus, UniProt P11193 1-775).
T1 construct: whole, on cells
Put plainly: immunostaining, RV-infected MA104 cells.

Assay [2] addresses T1, VP4 of rotavirus strain Wa (G1P[8]). Put plainly: cell-based or functional assay.
Assay [3] has as its target VP4 of rotavirus strain 69M (G8P[10]) (human rotavirus). Put plainly: cell-based or functional assay.
Assay [4] addresses VP4 of rotavirus strain #321 (G10P[11]) (human rotavirus). As to the kind of experiment: cell-based or functional assay.
Assay [5] concerns the target T2, VP4 of rotavirus strain DS1 (G2P[4]) (human rotavirus, UniProt Q14197).
T2 construct: whole, on cells
As to the kind of experiment: immunostaining, RV-infected MA104 cells.

For assay [6], the target named is T3, VP4 of rotavirus strain OSU (G5P[7]) (porcine rotavirus).
T3 construct: whole, on cells; also called OSU G5[7]
T3 sequence (P11114 whole entry): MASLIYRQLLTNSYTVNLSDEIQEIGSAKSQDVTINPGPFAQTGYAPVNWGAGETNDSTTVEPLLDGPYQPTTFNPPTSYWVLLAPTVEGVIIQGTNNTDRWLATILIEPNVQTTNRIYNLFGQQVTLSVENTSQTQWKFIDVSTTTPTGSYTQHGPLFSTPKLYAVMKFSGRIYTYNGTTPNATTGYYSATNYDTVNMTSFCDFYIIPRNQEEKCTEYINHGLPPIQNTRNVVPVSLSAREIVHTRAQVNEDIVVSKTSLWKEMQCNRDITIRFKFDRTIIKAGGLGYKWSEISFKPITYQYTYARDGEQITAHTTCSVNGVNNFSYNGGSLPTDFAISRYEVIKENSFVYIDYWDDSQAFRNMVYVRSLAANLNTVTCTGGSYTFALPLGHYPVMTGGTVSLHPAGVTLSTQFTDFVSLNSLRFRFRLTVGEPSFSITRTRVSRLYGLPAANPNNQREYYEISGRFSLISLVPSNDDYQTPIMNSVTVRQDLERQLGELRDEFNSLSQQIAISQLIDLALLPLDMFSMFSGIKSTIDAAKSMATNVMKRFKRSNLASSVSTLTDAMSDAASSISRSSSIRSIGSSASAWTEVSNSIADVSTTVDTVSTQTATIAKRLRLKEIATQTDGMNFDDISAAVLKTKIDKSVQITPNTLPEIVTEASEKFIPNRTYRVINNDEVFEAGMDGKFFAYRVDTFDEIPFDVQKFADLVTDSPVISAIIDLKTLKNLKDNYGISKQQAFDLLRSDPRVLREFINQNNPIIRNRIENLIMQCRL
As to the kind of experiment: immunostaining, RV-infected MA104 cells.

The target in assay [7] is T4, VP4 of rotavirus strain NCDV (G6P[1]) (bovine rotavirus).
T4 construct: whole, on cells
T4 sequence (P17465 whole entry): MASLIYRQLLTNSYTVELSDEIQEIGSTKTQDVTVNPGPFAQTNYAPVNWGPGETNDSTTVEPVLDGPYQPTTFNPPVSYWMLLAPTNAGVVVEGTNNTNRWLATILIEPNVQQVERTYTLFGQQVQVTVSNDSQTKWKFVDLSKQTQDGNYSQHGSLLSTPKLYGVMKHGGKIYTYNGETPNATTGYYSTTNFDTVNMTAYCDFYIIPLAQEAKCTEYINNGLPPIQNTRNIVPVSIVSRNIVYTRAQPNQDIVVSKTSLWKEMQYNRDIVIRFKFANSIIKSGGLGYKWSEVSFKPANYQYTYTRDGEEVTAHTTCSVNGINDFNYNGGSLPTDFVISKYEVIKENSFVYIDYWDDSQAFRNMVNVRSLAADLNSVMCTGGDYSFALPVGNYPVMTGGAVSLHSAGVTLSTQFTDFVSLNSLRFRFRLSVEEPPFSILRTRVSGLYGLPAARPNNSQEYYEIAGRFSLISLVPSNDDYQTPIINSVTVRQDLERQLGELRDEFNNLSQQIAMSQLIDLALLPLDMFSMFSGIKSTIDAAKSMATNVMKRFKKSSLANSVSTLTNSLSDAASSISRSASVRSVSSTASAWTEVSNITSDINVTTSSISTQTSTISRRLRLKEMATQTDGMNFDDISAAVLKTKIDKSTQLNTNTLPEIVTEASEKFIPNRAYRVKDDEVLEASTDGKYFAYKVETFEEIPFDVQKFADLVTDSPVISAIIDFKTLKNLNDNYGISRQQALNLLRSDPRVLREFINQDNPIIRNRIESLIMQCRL
Put plainly: immunostaining, RV-infected MA104 cells.

Assay [8] addresses T5, VP4 of rotavirus strain ST3 (G4P[6]) (human rotavirus).
T5 construct: whole, on cells
As to the kind of experiment: immunostaining, RV-infected MA104 cells.

In assay [9] the target is T6, CDC-9 triple layered particles (TLPs), G1P[8] (human rotavirus). As to the kind of experiment: ELISA, CDC-9 TLPs. On the technique in general: An ELISA detects its analyte on a solid surface through an enzyme-linked reagent.
Assay [10] addresses T3, VP4 of rotavirus strain OSU (G5P[7]). As to the kind of experiment: cell-based or functional assay.
Assay [11] addresses T4, VP4 of rotavirus strain NCDV (G6P[1]). As to the kind of experiment: cell-based or functional assay.
The target of assay [12] is VP7 of rotavirus strain #321 (G10P[11]) (human rotavirus). Put plainly: cell-based or functional assay.
The target of assay [13] is VP7 of rotavirus strain 69M (G8P[10]) (human rotavirus). As to the kind of experiment: cell-based or functional assay.
Assay [14] addresses T7, VP7 of rotavirus strain Wa (G1P[8]) (human rotavirus, UniProt P03532 51-326).
T7 construct: whole, on cells
As to the kind of experiment: immunostaining, RV-infected MA104 cells.

Assay [15] addresses T7, VP7 of rotavirus strain Wa (G1P[8]). Put plainly: cell-based or functional assay.
Assay [16] concerns the target T2, VP4 of rotavirus strain DS1 (G2P[4]). Put plainly: cell-based or functional assay.
Assay [17] has as its target T6, CDC-9 triple layered particles (TLPs), …. Put plainly: cell-based or functional assay.
The target in assay [18] is T8, VP7 of rotavirus strain DS1 (G2P[4]) (human rotavirus).
T8 construct: whole, on cells
T8 sequence (P11850 51-326): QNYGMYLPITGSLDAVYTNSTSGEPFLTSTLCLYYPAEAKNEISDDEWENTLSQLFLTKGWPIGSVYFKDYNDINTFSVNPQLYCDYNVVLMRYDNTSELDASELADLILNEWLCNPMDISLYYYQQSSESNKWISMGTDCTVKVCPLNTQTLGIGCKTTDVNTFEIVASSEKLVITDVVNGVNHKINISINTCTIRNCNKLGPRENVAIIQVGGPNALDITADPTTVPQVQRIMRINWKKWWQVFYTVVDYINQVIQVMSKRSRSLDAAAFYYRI
As to the kind of experiment: immunostaining, RV-infected MA104 cells.

Assay [19] deals with T9, VP7 of rotavirus strain RRV (G3P[3]) (simian rotavirus, UniProt P12476 51-326).
T9 construct: whole, on cells
T9 sequence (P12476 51-326): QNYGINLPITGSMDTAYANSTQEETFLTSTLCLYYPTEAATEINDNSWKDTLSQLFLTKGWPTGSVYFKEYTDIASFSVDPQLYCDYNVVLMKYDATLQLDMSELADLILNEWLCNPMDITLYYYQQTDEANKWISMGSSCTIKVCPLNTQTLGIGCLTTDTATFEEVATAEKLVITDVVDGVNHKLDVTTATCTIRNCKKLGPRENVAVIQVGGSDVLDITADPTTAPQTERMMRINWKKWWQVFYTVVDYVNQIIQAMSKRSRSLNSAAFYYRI
Put plainly: immunostaining, RV-infected MA104 cells.

Assay [20] concerns the target T10, VP7 of rotavirus strain ST3 (G4P[6]) (human rotavirus).
T10 construct: whole, on cells
Put plainly: immunostaining, RV-infected MA104 cells.

The target in assay [21] is T11, VP7 of rotavirus strain OSU (G5P[7]) (porcine rotavirus).
T11 construct: whole, on cells; also called OSU G5[7]
T11 sequence (P08406 51-326): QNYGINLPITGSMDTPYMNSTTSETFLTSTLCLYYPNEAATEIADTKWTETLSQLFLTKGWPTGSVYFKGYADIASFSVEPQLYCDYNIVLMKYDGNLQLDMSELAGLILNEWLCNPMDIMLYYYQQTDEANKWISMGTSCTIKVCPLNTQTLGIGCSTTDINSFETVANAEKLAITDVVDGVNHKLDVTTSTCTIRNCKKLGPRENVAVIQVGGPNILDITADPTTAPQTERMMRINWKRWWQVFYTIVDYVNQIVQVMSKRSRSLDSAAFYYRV
As to the kind of experiment: immunostaining, RV-infected MA104 cells.

Assay [22] addresses T8, VP7 of rotavirus strain DS1 (G2P[4]). As to the kind of experiment: cell-based or functional assay.
In assay [23] the target is T9, VP7 of rotavirus strain RRV (G3P[3]). Put plainly: cell-based or functional assay.
Assay [24] has as its target T11, VP7 of rotavirus strain OSU (G5P[7]). Put plainly: cell-based or functional assay.

T7 sequence (P03532 51-326 limits assumed): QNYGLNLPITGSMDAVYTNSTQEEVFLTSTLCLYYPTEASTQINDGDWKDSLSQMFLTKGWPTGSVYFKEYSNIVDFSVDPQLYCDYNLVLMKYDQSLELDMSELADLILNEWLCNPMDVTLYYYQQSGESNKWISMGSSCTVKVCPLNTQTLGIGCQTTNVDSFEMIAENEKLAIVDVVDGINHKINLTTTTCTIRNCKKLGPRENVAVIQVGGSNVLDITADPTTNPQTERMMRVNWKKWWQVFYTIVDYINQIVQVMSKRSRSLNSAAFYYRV
T1 sequence (P11193 whole entry): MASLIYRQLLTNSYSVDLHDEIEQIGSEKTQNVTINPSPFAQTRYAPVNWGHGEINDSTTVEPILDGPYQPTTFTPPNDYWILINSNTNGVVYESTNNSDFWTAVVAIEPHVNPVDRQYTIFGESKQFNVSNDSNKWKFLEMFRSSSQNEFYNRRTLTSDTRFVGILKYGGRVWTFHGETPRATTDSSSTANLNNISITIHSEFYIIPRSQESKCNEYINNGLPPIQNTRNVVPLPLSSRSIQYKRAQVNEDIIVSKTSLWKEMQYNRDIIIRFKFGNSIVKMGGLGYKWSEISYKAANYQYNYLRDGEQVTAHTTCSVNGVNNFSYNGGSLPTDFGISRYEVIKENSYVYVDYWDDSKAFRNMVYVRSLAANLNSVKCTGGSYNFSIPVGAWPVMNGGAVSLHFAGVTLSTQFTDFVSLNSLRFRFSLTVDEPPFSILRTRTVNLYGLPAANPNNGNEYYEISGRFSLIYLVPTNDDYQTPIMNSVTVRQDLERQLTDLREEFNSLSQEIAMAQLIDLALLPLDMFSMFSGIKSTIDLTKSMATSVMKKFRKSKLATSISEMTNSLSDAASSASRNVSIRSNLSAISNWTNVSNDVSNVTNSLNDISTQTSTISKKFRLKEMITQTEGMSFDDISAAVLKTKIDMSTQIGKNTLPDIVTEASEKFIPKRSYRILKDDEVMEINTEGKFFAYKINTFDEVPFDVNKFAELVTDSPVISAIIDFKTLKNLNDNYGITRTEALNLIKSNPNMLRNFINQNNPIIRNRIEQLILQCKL
T5 sequence (P11200 whole entry): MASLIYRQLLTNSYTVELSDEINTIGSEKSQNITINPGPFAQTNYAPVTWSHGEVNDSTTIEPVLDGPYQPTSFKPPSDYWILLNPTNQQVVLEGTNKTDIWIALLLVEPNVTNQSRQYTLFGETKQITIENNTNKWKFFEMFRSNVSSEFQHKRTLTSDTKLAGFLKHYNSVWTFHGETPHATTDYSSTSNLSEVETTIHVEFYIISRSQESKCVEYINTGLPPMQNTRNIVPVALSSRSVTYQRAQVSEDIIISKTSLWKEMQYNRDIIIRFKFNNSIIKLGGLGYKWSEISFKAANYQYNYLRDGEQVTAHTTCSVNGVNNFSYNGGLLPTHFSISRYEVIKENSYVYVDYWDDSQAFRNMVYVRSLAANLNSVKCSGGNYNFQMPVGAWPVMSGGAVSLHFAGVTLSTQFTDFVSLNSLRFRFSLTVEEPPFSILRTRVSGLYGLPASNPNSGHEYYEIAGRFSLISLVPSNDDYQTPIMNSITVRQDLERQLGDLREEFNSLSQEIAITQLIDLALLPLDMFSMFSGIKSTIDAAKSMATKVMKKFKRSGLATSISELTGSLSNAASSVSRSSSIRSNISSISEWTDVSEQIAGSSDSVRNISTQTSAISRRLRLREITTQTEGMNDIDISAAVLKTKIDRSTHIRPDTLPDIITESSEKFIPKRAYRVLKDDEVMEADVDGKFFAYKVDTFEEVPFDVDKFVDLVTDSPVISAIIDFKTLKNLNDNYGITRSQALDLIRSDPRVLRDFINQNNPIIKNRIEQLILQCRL
T10 sequence (P10501 51-326): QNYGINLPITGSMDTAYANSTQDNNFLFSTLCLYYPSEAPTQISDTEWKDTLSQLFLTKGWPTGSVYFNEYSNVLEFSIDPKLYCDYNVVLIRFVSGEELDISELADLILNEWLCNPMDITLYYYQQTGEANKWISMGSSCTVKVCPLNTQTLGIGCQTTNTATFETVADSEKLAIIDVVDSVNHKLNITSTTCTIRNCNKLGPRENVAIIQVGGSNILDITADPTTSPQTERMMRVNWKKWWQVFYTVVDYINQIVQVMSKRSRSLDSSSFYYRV

B1: mAb #33 (antibody, V domains shown)
VH: DVQLVESGGGLVQPGGPSRLSCSASRFTFSNYAMYWVRQAPGKGLEYVSSISSDGGSTYYAESVKGRFTISRDNSKNTLYLQMRSLRAEDAAVYYCVTDVLRLPYSTGWSPGDFIYWGQGTLVTVSS
VL: DIQMTQSPSILYASVGDRVTITCRASQSVSSWLAWYQQKPGKVPKLLIYQASTLENGVPSRFSGSGSGTEFILTISSLQPDDFATYYCQHYNVLWTFGQGTKVEI
notes: also called mAb ID: 33; Mab No. 33
B1 returned an Endpoint immunostaining concentration in assay [1] of 50 ng/mL. Also, in assay [2], the minimum neutralizing concentration is 2.4 ng/mL.

B2: mAb #49 (antibody, V domains shown)
VH: B1 VH with P17S, S18V
VL: DIQMTQSPSILYASVGDRVTITCRASQSVSSWLAWYQQKPGKVPKLLIYQASTLENGVPSRFSGSGSGTEFILTISSLQPDDFATYYCQHYNVLWTFGQGTKVEIK
notes: also called mAb ID: 49; Mab No. 49
In the case of B2, the in vitro neutralization in assay [3] and in [4] was greater than 625 ng/mL in each case. In addition, the Endpoint immunostaining concentration worked out at 0.5 ng/mL in assay [5]; 5.6 ng/mL in [6]; 5.6 ng/mL in assay [7]; 5 ng/mL in assay [1]; 5 ng/mL in assay [8]. Moreover, in [9], the “Minimum concentration for TLP binding” value was 5 ng/mL. Further, the minimum neutralizing concentration in assay [10] was determined as 156 ng/mL; in assay [11], 39.1 ng/mL; in assay [2], 39.1 ng/mL.

B3: mAb #2 (antibody, V domains shown)
VH: EVQLVESGGGLVKPGGSLRLSCKASGLIVSDAWMSWVRQSPGKGLEWVGRIKSEINGGTIDYAAPVKGRFTILRDDSKNTLYLQINSLKTEDTAVYYCTTRLLFSPWGQGTLVTVSS
VL: QPVLTQPPSSSASPGESARLTCTLPSDINVAYYNIYWYQQKPGSPPRYLLYYYSDSDQGQGSGVPSRFSGSKDASANTGILFISGLQSEDEADYYCMIWTSNASMFGGGTKLTVL
notes: also called mAb ID: 2; Mab No. 2
Regarding B3, the Endpoint immunostaining concentration in assay [1] amounted to 5 ng/mL.

B4: mAb #46 (antibody, V domains shown)
VH: QVQLQESGPGLVKPSETLSLTCTVSGGSINSYYWSWIRQSPGKGLEWIGYVFYSGITKYNPSLQSRVTISLDMGKNQFSLKLTSVNAADAAVYYCARNFPSYTPDWFFDLWGRGTLVTVSS
VL: EIVLTQSPGTLSLSPGERATLSCRASQSVSSDNLAWYQQKPGQPPRLLIYGASHRATGIPDRFSGSGSGTDFTLTISRLEPEDFAVYHCQQYGSSPLTFGGGTKVEIK
notes: also called mAb ID: 46; Mab No. 46
As to B4, the in vitro neutralization in [12] and in [13] was greater than 625 ng/mL each time. Moreover, the Endpoint immunostaining concentration in [14] turned out to be 0.5 ng/mL. In assay [9], the “Minimum concentration for TLP binding” value is 0.5 ng/mL. This molecule also showed a minimum neutralizing concentration in assay [15] of 2.4 ng/mL.

B5: mAb #30 (antibody, V domains shown)
VH: QVQLVQSGAEVKKPGASVTVSCKASGYAFTSFYLHWVRQAPGQGLEWMGIINPSDGRTRYAQKFQGRVTMTSDTSTNTVYVELSSLRSEDTAIYYCARGAIGNYNAREALDVWGRGTTVTVSS
VL: EIVMTQSPATLSVSPGESATLSCRASQSINSNLAWYQQKPGQAPRLLIFSASSRATGIPARFSGSGSGTEFTLTISSLQSDDFAVYYCQQYNIWPPEHTFGQGTRLQIK
notes: also called mAb ID: 30; Mab No. 30
B5 came in with an Endpoint immunostaining concentration in [1] of 5 ng/mL. For the same molecule, the minimum neutralizing concentration in [2] was determined as 0.6 ng/mL.

B6: mAb #41 (antibody, V domains shown)
VH: EVQLVESGGGPVQPGGSLKLSCAASGFTFSNYEMYWVRQAPGKGLEWVSYISTSPAITYYADSVRGRFTISRDNAKSSLYLHMNSLRAEDTAVYYCATISHQQFSSGWNAWFDPWGQGTLVTVSS
VL: NFMLTQPHSVSESPGKTVTISCTGSSGSIASNYVQWYRQRPGSAPTTVIYENYQRPSGVPARFSGSIDRSSNSASLTISGLQTDDEADYYCQSYDNNNLWVFGGGTKLTVL
notes: also called mAb ID: 41; Mab No. 41
For the molecule B6, the Endpoint immunostaining concentration in assay [1] was 0.5 ng/mL. The molecule also yielded a minimum neutralizing concentration in assay [2] of 0.6 ng/mL.

B7: mAb #47 (antibody, V domains shown)
VH: QVQLQESGPGLVKPSETLSLTCSVSGGSISVYYWNWIRQSPGKGLEWIASMYYTGITNYNPSLKSRVTMSVDMSKNQFSLKLSSVTAADTAVYYCARTMGIDQNNRGWPPAGYYFGMDVWGQGTTVTVSS
VL: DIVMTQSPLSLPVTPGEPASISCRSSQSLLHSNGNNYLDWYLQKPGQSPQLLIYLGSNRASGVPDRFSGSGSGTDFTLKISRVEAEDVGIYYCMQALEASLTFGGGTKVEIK
notes: also called mAb ID: 47; Mab No. 47
B7: the in vitro neutralization in assay [3] and in assay [4] was greater than 625 ng/mL throughout. For the same molecule, the Endpoint immunostaining concentration in [5] and in [1] was 0.5 ng/mL in each case. The “Minimum concentration for TLP binding” value in assay [9] turned out to be 0.5 ng/mL. Also, the minimum neutralizing concentration in [16] and in [17] was 4.9 ng/mL throughout.

B8: mAb #57 (antibody, V domains shown)
VH: QVQLVESGGGVVQSGRSLRLSCAASGFTFRSYAMHWVRQAPGKGLEWVADLSLDGSHKYADSVRGRFTISSDSSKNTVYLQMNSLRTEDTAIYYCARAAGIMVAGTFLTEFYFDYWGQGTLVTVSS
VL: QSVLTQPPSVSGAPGQRVTISCTGSSSNIGAGYDVHWYQQLPGTAPKLLIYGNIKRPSGVPDRFSGSKSGTSASLAITGLQTEDEADYYCQSYDSSLSAYYVFGTGTRVTVL
notes: also called mAb ID: 57; Mab No. 57
As to B8, the in vitro neutralization in assay [12] and in [13] was greater than 625 ng/mL in each case. The Endpoint immunostaining concentration in assay [18] turned out to be 0.5 ng/mL; in assay [19], 5 ng/mL; in assay [20], 500 ng/mL; in [21], 50 ng/mL. The “Minimum concentration for TLP binding” value in assay [9] came out at 0.5 ng/mL. The minimum neutralizing concentration in assay [22] amounted to 4.9 ng/mL; in assay [23], 1.2 ng/mL; in assay [24], 19.5 ng/mL.

B9: mAb #27 (antibody, V domains shown)
VH: QVQLQESGPGLVKPLETLSLTCAVSGVSINSYYWSWIRQPPGKGLEWIGNVFYSGSTKYNPSLESRVAMTVDSSRNQVSLRLNSVTAADTAVYYCAREGVGYGYNNYGGNWFDPWGQGTLVTVSS
VL: EVVLTQSPGTLSLSPGERVTLSCRASQSVTSSNLAWYQQKPGQTPRLLISGASSRATGIPDRFSGSGSGTDFTLTISRLEPEDFAVYYCQQYANSPVTFGGGTKLEIK
notes: also called mAb ID: 27; Mab No. 27
B9 displayed an Endpoint immunostaining concentration in assay [14] of 0.5 ng/mL. The same molecule showed a minimum neutralizing concentration in assay [15] of 0.3 ng/mL.
